Source: publication PMC4966879
Like-named read-outs stand apart in the source and are kept apart here.

Columns and labels:
Experiment in all cases: SAXS
HUαβ [1] = biological target: T1, HUαβ (Escherichia coli, UniProt P0ACF0;P0ACF4 1-90;1-90)
HUαα [2] = biological target: T2, HUαα (Escherichia coli, UniProt P0ACF0 1-90)
HUα38α38 = HUα38α38 (Escherichia coli, UniProt P0ACF0 1-90, E38K;V42L)
HUαβ [3] = biological target: T1, HUαβ; remark: listed apart in the source
HUαα [4] = biological target: T2, HUαα; remark: listed apart in the source
HUαα V45E = HUαα V45E (Escherichia coli, UniProt P0ACF0 1-90, V45E)
HUαα G82E = HUαα G82E (Escherichia coli, UniProt P0ACF0 1-90, G82E)
HUαα P63E = HUαα P63E (Escherichia coli, UniProt P0ACF0 1-90, P63E)

Measured: binding result

B1: 20-bp DNA (dsDNA)
DNA 1: GTTCAATTGTTGTTAACTTG
DNA 2: CAAGTTAACAACAATTGAAC
binds: HUαβ [1] | HUαα [2]

B2: 80-bp DNA (dsDNA)
DNA 1: AATGAGGTAACAACGAAAGCAGATGATAGCTGCTTATCAATTTGTTGCAAACAAGTAGCCGCGCCCAATGAGGTAACAAT
DNA 2: ATTGTTACCTCATTGGGCGCGGCTACTTGTTTGCAACAAATTGATAAGCAGCTATCATCTGCTTTCGTTGTTACCTCATT
binds: HUα38α38 | HUαβ [3] | HUαα [4] | HUαα V45E | HUαα G82E | HUαα P63E
